The values that follow come from paper doi:10.1101/2021.05.23.445348.

What all share (test): ITC
(Isothermal titration calorimetry measures the heat released or taken up as one component is titrated into another.)

For experiment [1], the target named is SARS-CoV-2 RBD K417N (SARS-CoV-2) (UniProt P0DTC2).
Experiment [2] deals with SARS-CoV-2 RBD Y453F (SARS-CoV-2) (UniProt P0DTC2).
In experiment [3] the target is SARS-CoV-2 RBD T478I (SARS-CoV-2) (UniProt P0DTC2).

Consider “CC12.1 single chain variable fragment (scFv)”, for which the Kd (commonly the free concentration of one partner at which half of the binding sites on the other are occupied at equilibrium, for simple one-to-one binding) in experiment [1] turned out to be 0.119 µM; in experiment [2], 0.827 µM; in experiment [3], 0.0058 µM.
